We go through five molecules from patent US20120164068A1 (AVIPEP, published 2012).

For experiment [1], the target named is T1, recombinant HER2 ectodomain (UniProt P04626 23-652, limits assumed).
T1 construct: extracellular domain
Description: column shift assay: size exclusion chromatography of the Avibody with and without soluble antigen (recombinant HER2 ectodomain), A280. A general note: Size exclusion chromatography separates by hydrodynamic size, large species first.

For experiment [2], the target named is T1, recombinant HER2 ectodomain. The experiment can be described thus: column shift assay: size exclusion chromatography of the PEG24 conjugate with and without soluble antigen (recombinant HER2 ectodomain), A280.
Experiment [3] has the same target. The experiment can be described thus: column shift assay: size exclusion chromatography of the Avibody with and without soluble antigen (recombinant HER2 ectodomain), A280. This is another data set of the same source.

B1: AVP07-63 anti-HER2 diabody (Cys at Kabat L8 and L12, CDR3H cysteines removed, N-terminal serine; Myc+(His)6 tag) (other)
chain: SVQLVQSGAEVKKPGESLKISCKGSGYSFTSYWIAWVRQMPGKGLEYMGLIYPGDSDTKYSPSFQGQVTISVDKSVSTAYLQWSSLKPSDSAVYFCARHDVGYASSSNAAKWPEYFQHWGQGTLVTVSSGGGGSQSVLTQPCSSCAAPGQKVTISCSGSSSNIGNNYVSWYQQLPGTVPKLLIYGHTNRPAGVPDRFSGSKSGTSASLAISGFRSEDEADYYCAAWDDSLSGWVFGGGTKLTVLG
notes: Diabody
As to B1, the binding result in experiment [1] is on record as “binds”.

B2: AVP07-63-PEG24 L8-L12 Diabody (other)
VH-linker-VL polypeptide of the diabody: SVQLVQSGAEVKKPGESLKISCKGSGYSFTSYWIAWVRQMPGKGLEYMGLIYPGDSDTKYSPSFQGQVTISVDKSVSTAYLQWSSLKPSDSAVYFCARHDVGYASSSNAAKWPEYFQHWGQGTLVTVSSGGGGSQSVLTQPCSSCAAPGQKVTISCSGSSSNIGNNYVSWYQQLPGTVPKLLIYGHTNRPAGVPDRFSGSKSGTSASLAISGFRSEDEADYYCAAWDDSLSGWVFGGGTKLTVLG
modifications: engineered cysteines at Kabat L8 and L12 (VL FR1) conjugated with maleimide-PEG24-methoxy
notes: also called PEGylated AVP07-63
B2: the binding result in experiment [2] is given as “binds”.

B3: AVP07-68 anti-HER2 diabody (Cys at Kabat L8 and L12, CDR3H cysteines removed, N-terminal serine; (His)6 tag) (other)
chain: SVQLVQSGAEVKKPGESLKISCKGSGYSFTSYWIAWVRQMPGKGLEYMGLIYPGDSDTKYSPSFQGQVTISVDKSVSTAYLQWSSLKPSDSAVYFCARHDVGYASSSNAAKWPEYFQHWGQGTLVTVSSGGGGSQSVLTQPCSSCAAPGQKVTISCSGSSSNIGNNYVSWYQQLPGTVPKLLIYGHTNRPAGVPDRFSGSKSGTSASLAISGFRSEDEADYYCAAWDDSLSGWVFGGGTKLTVLG
notes: Diabody; It is identical to AVP07-63 except that it carries only the C-terminal (His)6 tag
B3: in experiment [3], the binding result is listed as “binds”.

B4: AVP07-17 anti-HER2 diabody (other)
chain: QVQLVQSGAEVKKPGESLKISCKGSGYSFTSYWIAWVRQMPGKGLEYMGLIYPGDSDTKYSPSFQGQVTISVDKSVSTAYLQWSSLKPSDSAVYFCARHDVGYCSSSNCAKWPEYFQHWGQGTLVTVSSGGGGSQSVLTQPPSVSAAPGQKVTISCSGSSSNIGNNYVSWYQQLPGTVPKLLIYGHTNRPAGVPDRFSGSKSGTSASLAISGFRSEDEADYYCAAWDDSLSGWVFGGGTKLTVLG
notes: Diabody of two VH-Gly4Ser-VL chains from a human anti-HER2 mAb, with a lambda VL; also called AVP07-17 Avibody
For the molecule B4, the binding result in experiment [1] is “binds”.

B5: AVP07-71 anti-HER2 scFv (Cys at Kabat L8 and L12, CDR3H cysteines removed, N-terminal serine) (scFv)
scFv: SVQLVQSGAEVKKPGESLKISCKGSGYSFTSYWIAWVRQMPGKGLEYMGLIYPGDSDTKYSPSFQGQVTISVDKSVSTAYLQWSSLKPSDSAVYFCARHDVGYASSSNAAKWPEYFQHWGQGTLVTVSSGGGGSGGGGSGGGGSQSVLTQPCSSCAAPGQKVTISCSGSSSNIGNNYVSWYQQLPGTVPKLLIYGHTNRPAGVPDRFSGSKSGTSASLAISGFRSEDEADYYCAAWDDSLSGWVFGGGTKLTVLG
notes: Monomeric scFv, unconjugated
Turning to B5, the binding result in experiment [1] is on record as “binds”.
